Key:
Test in all cases: EMSA
[1] = target: ZIF-F4-GAC (TFIIIA finger 4 linker) (artificial) (UniProt P08046); conditions: apparent Kd
[2] = system: ZIF-ZnF-GAC (serine-finger linker) (artificial); conditions: apparent Kd
[3] = target: ZIF-flex-GAC (linker TG(GSG)5ERP) (artificial) (UniProt P08046); conditions: all sites approximately 50 pM
[4] = target: TF(1-3)-flex-ZIF (linker TG(GSG)5ERP) (artificial) (UniProt P03001+P08046); conditions: apparent Kd
[5] = target: ZIF-F4mut-GAC (ZIF-mutF4-GAC; TFIIIA finger 4 flanked by GERP linkers) (artificial) (UniProt P08046); conditions: apparent Kd
[6] = target: ZIF-mutZnF-GAC (serine finger flanked by NIKICV and TQQLP) (artificial) (UniProt P08046)
[7] = system: 2x3F ZIF-GAC (artificial); conditions: apparent Kd; half-site
[8] = system: 3x2F ZGS (artificial); conditions: apparent Kd; half-site; hard to quantify
[9] = system: TF(1-4)-ZIF (TFIIIA F1-4 fused to Zif268) (artificial); conditions: apparent Kd; half-site

3x2F ZGS (artificial), sequence (chain, as listed by the source): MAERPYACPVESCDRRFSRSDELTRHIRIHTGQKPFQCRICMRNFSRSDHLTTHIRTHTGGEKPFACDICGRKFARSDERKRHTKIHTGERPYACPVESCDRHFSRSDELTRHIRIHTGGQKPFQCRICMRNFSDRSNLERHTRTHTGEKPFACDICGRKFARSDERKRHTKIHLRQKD

Row | Sequence | Kd [1] [pM] | Kd [2] [pM] | Kd [3] [pM] | further results
1 | GCGGACGCGNNGCGTGGGCG (double strand) [Z2M] | 7 | 6 | 50 | –
2 | GCGGACGCGNNNGCGTGGGCG (double strand) [Z3M] | 5 | 4 | 50 | –
3 | GCGGACGCGNNNNNNNNGCGTGGGCG (double strand) [Z8M] | 5 | 6 | 50 | –
4 | GCGTGGGCGAGTACCTGGATGGGAGAC (double strand) [TF7Z (bsC1)] | – | – | – | Kd [4]: 57 pM
5 | GCGGACGCGNNNNNNNNNGCGTGGGCG (double strand) [Z9M] | 5 | 4 | 50 | –
6 | GCGGACGCGNNNNNNGCGTGGGCG (double strand) [Z6M] | 17 | 7 | 50 | Kd [5]: 13 pM; Kd [6]: 11 pM
7 | GCGTGGGCGGTACCTGGATGGGAGAC (double strand) [TF6Z (bsB1)] | – | – | – | Kd [4]: 68 pM
8 | GCGTGGGCGTAGTACCTGGATGGGAGAC (double strand) [TF8Z (bsD1)] | – | – | – | Kd [4]: 61 pM
9 | GCGGACGCGGCGTGGGCG (double strand) [bsC (123456, ZM)] | 11 | – | 50 | –
10 | GCGGACGCGNNNNNNNNNNGCGTGGGCG (double strand) [Z10M] | 4 | 3 | 50 | –
11 | GCGTGGGCGTTAGTACCTGGATGGGAGAC (double strand) [TF9Z (bsE1)] | – | – | – | Kd [4]: 58 pM
12 | GCGGACGCGNNNNNNNGCGTGGGCG (double strand) [Z7M] | 5 | 3 | 50 | –
13 | GCGTGGGCGTACCTGGATGGGAGAC (double strand) [TF5Z (bsA1)] | – | – | – | Kd [4]: 63 pM
14 | GCGGACGCGNNNNNGCGTGGGCG (double strand) [Z5M] | 16 | 8 | 50 | Kd [5]: 13 pM; Kd [6]: 18 pM
15 | GCGGACGCGNNNNGCGTGGGCG (double strand) [Z4M] | 13 | 3 | 50 | –
16 | GCGTGGGCG (double strand) [bsA (ZIF site)] | – | – | – | Kd [7]: 2200 pM; Kd [8]: 110000 pM; Kd ([4]; half-site): 1800 pM; Kd [9]: 2000 pM; Kd ([1]; half-site): 2200 pM; Kd ([2]; half-site): 2000 pM
17 | GCGGACGCGNGCGTGGGCG (double strand) [Z1M] | 6 | 4 | 50 | –

From US20030119023
